Assay results published in patent US7078382B1, “Modulation of eNOS activity and therapeutic uses thereof” (Genentech, Inc., priority 1999, dated 2006).

How the values were obtained:
KDR receptor = KDR receptor (Homo sapiens, UniProt P35968); assay: KDR receptor binding ELISA (inhibition of biotinylated native VEGF (8-109) binding); conditions: second figure of the cell, ratio to native VEGF (8-109)
Experimental: Receptor binding assays were performed in 96-well immunoplates (Maxisorp, Nunc-Immunoplate, Nalge Nunc International, Rochester, N.Y.). Each well was coated with 100 μl of a solution containing 8 μg/ml of a monoclonal antibody to KDR known as MAKD5 (Genentech, South San Francisco, Calif.) in 50 mM carbonate buffer at pH 9.6 and incubated at 4° C. overnight. The supernatant was discarded, the wells were washed three times in washing buffer (0.05% Tween 20 in PBS), and the plate was blocked (150 μl per well) with block buffer (0.5% BSA, 0.01% thimerosal in PBS) at room temperature for one hour. The supernatant was discarded, and the wells were washed.
(§1) Aliquots of this mixture (100 μl) were added to the precoated microtiter wells and the plate was incubated for 1 hour at room temperature. […] The wells were then incubated with 3, 3′, 5,5′-tetramethyl benzidine (0.2 gram/liter; Kirkegaard & Perry Laboratories, Gaithersburg, Md.) for about 10 minutes at room temperature. Absorbance was read at 450 nm on a Vmax plate reader (Molecular Devices, Menlo Park, Calif.).
(§2) Titration curves were fit with a four-parameter nonlinear regression curve-fitting program (KaleidaGraph, Synergy Software, Reading, Pa.).

Flt-1 receptor = Flt-1 receptor binding ELISA (inhibition of biotinylated native VEGF binding to Flt-IgG); conditions: second figure of the cell, ratio to native VEGF (8-109)
Experimental: Receptor binding assays were performed in 96-well immunoplates (Maxisorp, Nunc-Immunoplate, Nalge Nunc International, Rochester, N.Y.). Each well was coated with 100 μl of a solution containing 2 μg/ml of rabbit F(ab′)2 to human IgG Fc (Jackson ImmunoResearch, West Grove, Pa.) in 50 mM carbonate buffer at pH 9.6 and incubated at 4° C. overnight. The supernatant was then discarded, the wells were washed three times in washing buffer (0.05% Tween 20 in PBS), and the plate was blocked (150 μl per well) with block buffer (0.5% BSA, 0.01% thimerosal in PBS) at room temperature for one hour. The supernatant was discarded, and the wells were washed.
The wells were filled with 100 μl of a solution containing Flt-IgG (a chimeric Flt-human Fc molecule) at 50 ng/ml in assay buffer (0.5% BSA, 0.05% Tween 20 in PBS). The wells were incubated at room temperature for 1 hour and then washed three times in wash buffer (0.05% Tween 20 in PBS).
as §1, with “the” for “this”, “2 hours” for “1 hour”, “g/liter,” for “gram/liter;”
as §2

Sequence of Flt-1 receptor (P17948 27-327 limits assumed): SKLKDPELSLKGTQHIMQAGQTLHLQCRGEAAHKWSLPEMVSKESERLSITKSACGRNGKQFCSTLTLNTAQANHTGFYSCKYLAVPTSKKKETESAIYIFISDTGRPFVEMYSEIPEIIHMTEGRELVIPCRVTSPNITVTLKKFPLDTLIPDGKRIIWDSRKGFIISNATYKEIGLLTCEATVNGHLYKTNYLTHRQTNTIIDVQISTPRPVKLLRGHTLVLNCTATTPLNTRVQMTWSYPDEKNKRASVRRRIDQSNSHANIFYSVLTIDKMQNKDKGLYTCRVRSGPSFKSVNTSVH
Sequence of KDR receptor (P35968 20-327 limits assumed): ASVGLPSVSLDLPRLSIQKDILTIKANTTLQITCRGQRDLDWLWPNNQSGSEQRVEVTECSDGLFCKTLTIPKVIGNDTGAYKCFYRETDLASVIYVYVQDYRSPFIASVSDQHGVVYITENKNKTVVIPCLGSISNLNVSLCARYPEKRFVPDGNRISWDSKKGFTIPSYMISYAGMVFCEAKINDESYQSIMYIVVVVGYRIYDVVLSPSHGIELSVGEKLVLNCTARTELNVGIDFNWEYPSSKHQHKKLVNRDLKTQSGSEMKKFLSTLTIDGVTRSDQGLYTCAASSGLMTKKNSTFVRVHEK

Row | Relative Binding Affinity KDR Receptor (KDR receptor) | Relative Binding Affinity FLT-1 Receptor (Flt-1 receptor) | Molecule
1 | 1 nM/1 | – | LK-VRB-4s: VEGF (1-109) variant, F17I/M18E/Y21F/Q22E/Y25I (protein) APMAEGGGQNHHEVVKIEDVFERSICHPIETLVDIFQEYPDEIEYIFKPSCVPLMRCGGCCNDEGLECVPTEESNITMQIMRIKPHQGQHIGEMSFLQHNKCECRPKKD
2 | 0.5 nM/0.5 | /300 | LK-VRB-9s: VEGF (1-109) variant, Q22R/D63S/G65M/L66R (protein) APMAEGGGQNHHEVVKFMDVYRRSYCHPIETLVDIFQEYPDEIEYIFKPSCVPLMRCGGCCNSEMRECVPTEESNITMQIMRIKPHQGQHIGEMSFLQHNKCECRPKKD
3 | 2 nM/2 | />10000 | LK-VRB-20s: VEGF (1-109) variant, Y21L/Q22R/Y25S/D63S/G65M/L66R (protein) APMAEGGGQNHHEVVKFMDVLRRSSCHPIETLVDIFQEYPDEIEYIFKPSCVPLMRCGGCCNSEMRECVPTEESNITMQIMRIKPHQGQHIGEMSFLQHNKCECRPKKD
4 | 0.6 nM/0.6 | />1400 | LK-VRB-16s: VEGF (1-109) variant, Q22R/Y25S/D63S/G65M/L66R (protein) APMAEGGGQNHHEVVKFMDVYRRSSCHPIETLVDIFQEYPDEIEYIFKPSCVPLMRCGGCCNSEMRECVPTEESNITMQIMRIKPHQGQHIGEMSFLQHNKCECRPKKD
5 | 2 nM/2 | />21000 | LK-VRB-15s: VEGF (1-109) variant, Y21L/Y25S/D63S/G65M/L66R (protein) APMAEGGGQNHHEVVKFMDVLQRSSCHPIETLVDIFQEYPDEIEYIFKPSCVPLMRCGGCCNSEMRECVPTEESNITMQIMRIKPHQGQHIGEMSFLQHNKCECRPKKD
6 | 4 nM/4 | />30 | LK-VRB-22s: VEGF (1-109) variant, GG5M/M18E/Y21L/Q22R/Y25S as printed (protein) APMAEGGGQNHHEVVKFEDVLRRSSCHPIETLVDIFQEYPDEIEYIFKPSCVPLMRCGGCCNDEMLECVPTEESNITMQIMRIKPHQGQHIGEMSFLQHNKCECRPKKD
7 | 0.5 nM/0.5 | />21000 | LK-VRB-8s*: VEGF (1-109) variant, Y2IL/D63S/G65M/LG6R as printed (protein) APMAEGGGQNHHEVVKFMDVLQRSYCHPIETLVDIFQEYPDEIEYIFKPSCVPLMRCGGCCNSEMRECVPTEESNITMQIMRIKPHQGQHIGEMSFLQHNKCECRPKKD
8 | 1 nM/1 | />15000 | LK-VRB-7s*: VEGF (1-109) variant, M18E/D63S/G65M/L66R (protein) APMAEGGGQNHHEVVKFEDVYQRSYCHPIETLVDIFQEYPDEIEYIFKPSCVPLMRCGGCCNSEMRECVPTEESNITMQIMRIKPHQGQHIGEMSFLQHNKCECRPKKD
9 | 3 nM/3 | />1900 | LK-VRB-17s: VEGF (1-109) variant, M18E/Y21L/Q22R/D63S/G65M/L66R (protein) APMAEGGGQNHHEVVKFEDVLRRSYCHPIETLVDIFQEYPDEIEYIFKPSCVPLMRCGGCCNSEMRECVPTEESNITMQIMRIKPHQGQHIGEMSFLQHNKCECRPKKD
10 | 3 nM/3 | />5600 | LK-VRB-21s: VEGF (1-109) variant, D63S/M18E/Y21L/Q22R/Y25S (protein) APMAEGGGQNHHEVVKFEDVLRRSSCHPIETLVDIFQEYPDEIEYIFKPSCVPLMRCGGCCNSEGLECVPTEESNITMQIMRIKPHQGQHIGEMSFLQHNKCECRPKKD
11 | 1 nM/1 | – | LK-VRB-3s: VEGF (1-109) variant, F17I/M18E/Y21F/Q22K/Y25S (protein) APMAEGGGQNHHEVVKIEDVFKRSSCHPIETLVDIFQEYPDEIEYIFKPSCVPLMRCGGCCNDEGLECVPTEESNITMQIMRIKPHQGQHIGEMSFLQHNKCECRPKKD
12 | 0.5 nM/0.5 | />2400 | LK-VRB-10s: VEGF (1-109) variant, Y25S/D63S/G65M/L66R (protein) APMAEGGGQNHHEVVKFMDVYQRSSCHPIETLVDIFQEYPDEIEYIFKPSCVPLMRCGGCCNSEMRECVPTEESNITMQIMRIKPHQGQHIGEMSFLQHNKCECRPKKD
13 | 14 nM/14 | />14000 | LK-VRB-13s: VEGF (1-109) variant, M18E/Y25S/D63S/G65M/L66R (protein) APMAEGGGQNHHEVVKFEDVYQRSSCHPIETLVDIFQEYPDEIEYIFKPSCVPLMRCGGCCNSEMRECVPTEESNITMQIMRIKPHQGQHIGEMSFLQHNKCECRPKKD
14 | 11 nM/11 | />8500 | LK-VRB-23s: VEGF (1-109) variant, L66R/M185/Y21L/Q22R/Y25S as printed (protein) APMAEGGGQNHHEVVKFEDVLRRSSCHPIETLVDIFQEYPDEIEYIFKPSCVPLMRCGGCCNDEGRECVPTEESNITMQIMRIKPHQGQHIGEMSFLQHNKCECRPKKD
15 | 10 nM/10 | />18000 | LK-VRB-24s: VEGF (1-109) variant, D63S/G65M/M18E/Y21L/Q22R/Y25S (protein) APMAEGGGQNHHEVVKFEDVLRRSSCHPIETLVDIFQEYPDEIEYIFKPSCVPLMRCGGCCNSEMLECVPTEESNITMQIMRIKPHQGQHIGEMSFLQHNKCECRPKKD
16 | 0.4 nM/0.4 | />5600 | LK-VRB-12s: VEGF (1-109) variant, M18E/Q22R/D63S/G65M/L66R (protein) APMAEGGGQNHHEVVKFEDVYRRSYCHPIETLVDIFQEYPDEIEYIFKPSCVPLMRCGGCCNSEMRECVPTEESNITMQIMRIKPHQGQHIGEMSFLQHNKCECRPKKD
17 | 2 nM/2 | />14000 | LK-VRB-11s: VEGF (1-109) variant, M18E/Y21L/D63S/G65M/L66R (protein) APMAEGGGQNHHEVVKFEDVLQRSYCHPIETLVDIFQEYPDEIEYIFKPSCVPLMRCGGCCNSEMRECVPTEESNITMQIMRIKPHQGQHIGEMSFLQHNKCECRPKKD
18 | 7 nM/7 | />35000 | LK-VRB-19s: VEGF (1-109) variant, M18E/Q22R/Y25S/D63S/G65M/L66R as printed (same as 18s) (protein) APMAEGGGQNHHEVVKFEDVYRRSSCHPIETLVDIFQEYPDEIEYIFKPSCVPLMRCGGCCNSEMRECVPTEESNITMQIMRIKPHQGQHIGEMSFLQHNKCECRPKKD
19 | 0.5 nM/0.5 | />2900 | LK-VRB-14s: VEGF (1-109) variant, Y21L/Q22R/D63S/G65M/L66R (protein) APMAEGGGQNHHEVVKFMDVLRRSYCHPIETLVDIFQEYPDEIEYIFKPSCVPLMRCGGCCNSEMRECVPTEESNITMQIMRIKPHQGQHIGEMSFLQHNKCECRPKKD
